Measured values reported in article PMC3352945.

How the values were obtained:
[1] = target: imported cpTatC; experiment: radioligand binding
[2] = target: cpTatC (pea (endogenous in pea thylakoids)); experiment: pull-down

Chain of tOE17 V-20F precursor protein (Q41048 whole entry): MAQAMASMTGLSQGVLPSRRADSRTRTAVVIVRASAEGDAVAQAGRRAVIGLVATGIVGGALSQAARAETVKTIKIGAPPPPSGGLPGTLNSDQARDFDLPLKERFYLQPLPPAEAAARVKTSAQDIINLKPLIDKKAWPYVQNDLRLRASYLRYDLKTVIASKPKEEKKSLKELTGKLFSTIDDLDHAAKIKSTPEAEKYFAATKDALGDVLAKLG
Chain of tOE17-GS3-His (Q41048 whole entry): as above

stoichiometry N (tOE17 per imported cpTatC) [1] | stoichiometry N (tOE17-GS3-His per cpTatC) [2] | Substance
0.92 | – | tOE17 V-20F precursor protein (from UniProt Q41048 1-217) (natural protein)
– | 1.05 | tOE17-GS3-His (from UniProt Q41048 1-217) (natural protein)
